Here are results for four molecules from patent US20240343803A1 (SHANDONG SIMCERE BIOPHARMACEUTICAL, published 2024).

For experiment [1], the target named is T1, Fusion protein of extracellular domain of human TIGIT and mouse IgG2a Fc fragment (human TIGIT ECD-mFc) (human).
T1 construct: The entry includes the signal peptide (limits not recoverable) and the mouse IgG2a Fc
T1 chain: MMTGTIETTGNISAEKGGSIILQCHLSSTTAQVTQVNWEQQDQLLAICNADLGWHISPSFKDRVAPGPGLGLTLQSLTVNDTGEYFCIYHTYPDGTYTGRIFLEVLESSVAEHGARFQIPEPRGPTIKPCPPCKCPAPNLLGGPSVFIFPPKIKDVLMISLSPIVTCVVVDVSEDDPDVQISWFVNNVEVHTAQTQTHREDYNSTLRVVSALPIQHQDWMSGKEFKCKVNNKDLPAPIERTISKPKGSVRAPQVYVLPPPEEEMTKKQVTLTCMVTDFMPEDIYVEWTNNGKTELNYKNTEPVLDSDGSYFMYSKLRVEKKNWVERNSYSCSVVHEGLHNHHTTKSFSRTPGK
As to the kind of experiment: FACS; blocking of TIGIT ECD-mFc binding to CHO-K1 CD155 cells. (In general: In flow cytometry, cells or beads pass a laser one at a time.)

The target in experiment [2] is T2, Fusion protein of extracellular domain of human TIGIT and His-tag (human TIGIT ECD-his) (human).
T2 chain: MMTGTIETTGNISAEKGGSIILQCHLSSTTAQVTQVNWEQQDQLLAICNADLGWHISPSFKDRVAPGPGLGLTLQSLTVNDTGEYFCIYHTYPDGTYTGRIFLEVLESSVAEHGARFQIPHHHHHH
As to the kind of experiment: BIAcore.

Experiment [3] has as its target T3, Full-length human TIGIT on CHO-K1 cells (CHO-K1 human TIGIT) (human, UniProt Q495A1 22-244).
T3 construct: NCBI XP_024309156.1; the entry includes the signal peptide (limits not recoverable); The strain (high, medium, low) is named under assay; also called high expression strain 1D2; medium expression strain 2D10
T3 sequence: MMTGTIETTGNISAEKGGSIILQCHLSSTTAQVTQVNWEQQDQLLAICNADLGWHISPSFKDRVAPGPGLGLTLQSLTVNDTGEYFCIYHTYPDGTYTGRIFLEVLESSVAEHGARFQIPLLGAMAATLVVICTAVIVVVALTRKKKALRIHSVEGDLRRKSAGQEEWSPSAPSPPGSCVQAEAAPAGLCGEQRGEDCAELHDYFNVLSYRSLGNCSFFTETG
In words: FACS; CHO-K1 human TIGIT low expression strain. Summed up: (§1)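 Binding to CHO-K1 cells expressing full-length human or cynomolgus monkey TIGIT, measured by flow cytometry. Cells at 2×10⁵/50 μL in 1% BSA-PBS were mixed 1:1 with antibodies serially diluted 3-fold over 12 points from 80 nM and held at 4° C for 60 min. EC50 came from the binding curves.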

For experiment [4], the target named is T4, Fusion protein of extracellular domain of cynomolgus monkey TIGIT and mouse IgG2a Fc fragment (cynomolgus … (cynomolgus monkey)).
T4 construct: The entry includes the signal peptide (limits not recoverable) and the mouse IgG2a Fc
T4 sequence (chain, as listed by the source limits assumed): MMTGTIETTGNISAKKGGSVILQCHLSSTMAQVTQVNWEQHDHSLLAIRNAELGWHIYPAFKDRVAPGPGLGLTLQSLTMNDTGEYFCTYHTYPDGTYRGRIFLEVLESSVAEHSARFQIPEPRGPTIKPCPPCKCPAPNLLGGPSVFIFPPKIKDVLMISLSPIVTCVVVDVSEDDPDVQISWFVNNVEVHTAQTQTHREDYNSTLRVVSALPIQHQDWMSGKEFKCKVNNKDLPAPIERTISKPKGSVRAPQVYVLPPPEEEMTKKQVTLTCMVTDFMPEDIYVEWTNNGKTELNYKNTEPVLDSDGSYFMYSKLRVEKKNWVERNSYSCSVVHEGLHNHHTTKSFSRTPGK
As to the kind of experiment: ELISA, cynomolgus monkey TIGIT ECD-mFc. The method, boiled down: (§2)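 Plates blocked with 5% skim milk-PBS at 37° C for 2-4 h. Test antibodies applied as a 12-point 3-fold series from 13 nM for 1.5-2 h at 37° C. Read-out: HRP secondary (1:5000, 1 h, 37° C), TMB colour for 7-10 min at room temperature, acid stop, absorbance at OD450 nm.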

The target of experiment [5] is T3, Full-length human TIGIT on CHO-K1 cells …. In words: FACS; CHO-K1 human TIGIT high expression strain. The method, boiled down:
as §1

In experiment [6] the target is T1, Fusion protein of extracellular domain …. In words: FACS; blocking of TIGIT ECD-mFc binding to CHO-K1 CD112 cells. The procedure:
The collected CHO-K1 CD112 cells were washed once with PBS (Hyclone, CAT #SH30256) and resuspended to 2×10⁵/40 μL with 1% BSA-PBS. The anti-TIGIT humanized antibodies were diluted to 600 nM with 1% BSA-PBS (diluted by 2.5-fold serial dilution for 12 concentration points). The TIGIT ECD-mFc was diluted with 1% BSA-PBS to 6 μg/mL. The 40 μL cells were then mixed with 40 μL diluted antibodies and 40 μL diluted TIGIT ECD-mFc, and then incubated at 4° C. for 60 minutes. […] The cell samples were washed twice with PBS, resuspended to 100 μL/well with 1% BSA-PBS and then analyzed by flow cytometry (BD, Canto II). […] (f) The binding activity of anti-TIGIT humanized antibodies to human PBMCs detected by FACS.

Experiment [7] has the same target. As to the kind of experiment: ELISA, human TIGIT ECD-mFc. The method, boiled down:
as §2
(In general: In an ELISA, binding on a coated surface is turned into a signal by an enzyme label.)

B1: TIGIT-070-H1L1 (antibody, V domains shown)
VH: EVQLVQSGAEVKKPGASVKVSCKASGYTFTNYYMHWVRQAPGQRLEWMGRIDPDSGGSKYNEKFKSRVTITVDKSASTAYMELSSLRSEDTAVYYCAREGHYGFYSDYWGQGTTVTVSS
VL: DIQMTQSPSSLSASVGDRVTITCRVSENIYSYLAWYQQKPGKSPKLLIYNAKTLAEGVPSRFSGSGSGTDFTLTISSLQPEDFATYYCQHHYGNPLTFGPGTKVDIK
notes: Humanized anti-TIGIT antibody
Regarding B1, the half-maximal inhibitory concentration (IC50) (as a rule, the concentration that inhibits the measured activity by half) in experiment [1] was 456 pM; in experiment [6] it was 4300 pM. Moreover, in experiment [2], binding was characterised by a dissociation constant (Kd) of 251 pM. For the same molecule, the koff (commonly the rate constant with which the complex falls apart) in experiment [2] amounted to 0.000219 s⁻¹. In experiment [2], the kon (as a rule, the rate constant with which the complex forms) was 875000 M⁻¹ s⁻¹. Further, the EC50 (in general, the concentration giving half of the maximal effect) in experiment [3] is 305 pM; in experiment [4], 12.3 pM; in experiment [5] it was 494 pM; in experiment [7] it was 14.9 pM.

B2: TIGIT-002-H4L3 (antibody, V domains shown)
VH: EVQLQESGPGLVKPSETLSLTCAVSGYSITSDSWNWIRQPPGKKLEYIGYISYSGNTYYNPSLKSRVTISRDTSKNQFSLKLSSVTAADTAVYYCARLDFSNYGGAVDYWGQGTTVTVSS
VL: DIVMTQSPDSLAVSLGERATINCKASQNVRTAVAWYQQKPGQSPKLMIYSASYRYTGVPDRFSGSGSGTDFTLTISSLQAEDVAVYYCQQYYTTPWTFGGGTKVEIK
notes: Humanized anti-TIGIT antibody
Regarding B2, the half-inhibitory concentration (IC50) in experiment [1] stood at 492 pM; in experiment [6], 3490 pM. Also, the dissociation constant (Kd) – broadly, the equilibrium constant for the complex coming apart – in experiment [2] was determined as 99.4 pM. Besides, the off-rate constant (koff) in experiment [2] was determined as 0.000293 s⁻¹. The molecule further had an association rate constant (kon) in experiment [2] of 2.95e+06 M⁻¹ s⁻¹. Also, the EC50 in experiment [3] was found to be 170 pM; in experiment [4] it was 18.9 pM; in experiment [5], 297 pM; in experiment [7] it was 13.8 pM.

B3: TIGIT-006-H5L3 (antibody, V domains shown)
VH: EVQLQESGPGLVKPSETLSLTCAVSGYSMTSDYWNWIRQPPGKKLEYIGYISYSGRTYYNPSLKSRVTISRDTSKNQFSLKLSSVTAADTAVYYCARGDYSNYGGAMYDWGQGTTVTVSS
VL: DIVMTQSPDSLAVSLGERATINCRASQGVSTTIAWYQQKPGQSPKLLIYSASYRYTGVPRFSGSGSGTDFTLTISSLQAEDVAVYYCQQYYSSPFTFGGGTKVEIK
notes: Humanized anti-TIGIT antibody
As to B3, the IC50 turned out to be 458 pM in experiment [1] and 4650 pM in experiment [6]. This molecule came in with a Kd in experiment [2] of 115 pM. Moreover, in experiment [2], the koff was found to be 0.000183 s⁻¹. The same molecule yielded an on-rate (kon) in experiment [2] of 1.6e+06 M⁻¹ s⁻¹. Besides, the concentration for a half-maximal effect (EC50) came out at 268 pM in experiment [3], 13.2 pM in experiment [4], 443 pM in experiment [5] and 9.2 pM in experiment [7].

B4: TIGIT-005-H2L1d (antibody, V domains shown)
VH: EVQLVQSGAEVKKPGASVKVSCKASGYAFTNYLIEWVRQAPGQRLEWMGVINPGSGGTNYKEKFKGRVTITADKSSSTAYMELSSLRSEDTAVYYCARGEYFFFDYWGQGTTVTVSS
VL: DIVMTQSPDSLAVSLGERATINCKASQHVSNAVAWYQHKPGQSPKLLIYSASYRYTGVPDRFSGSGSGTDFTLTISSLQAEDVAVYYCQQHYNTPHTFGGGTKVEIK
notes: Humanized anti-TIGIT antibody with NG-site mutation in VL
For the molecule B4, the values for the 50% inhibitory concentration (IC50) in experiment [1] and in experiment [6] were 467 pM and 3490 pM, respectively. The molecule further returned a Kd in experiment [2] of 85.2 pM. The molecule further registered a koff in experiment [2] of 0.000257 s⁻¹. The molecule also yielded a kon in experiment [2] of 3.02e+06 M⁻¹ s⁻¹. The half-maximal effective concentration (EC50) was 186 pM in experiment [3], 40.3 pM in experiment [4], 321 pM in experiment [5] and 29.1 pM in experiment [7].
